Measurements published in patent US8620595B2, “Methods for determining the retention of peptides in reverse phase chromatography using linear solvent strength theory” (University of Manitoba, priority 2010, dated 2013).
Several values for one entry are separate records, joined by “and”; a condition that tells them apart may be missing. Equal entries are not always repeated.

Assay: Determination of S from retention time shift Δ relative to P3 at two gradient slopes, nano-RP-HPLC MS of spiked tryptic digest
Type: physicochemical
Details: experimental S value, LC-MS runs of model peptide mixture
Protocol: Proteins and protein digestion. Tryptic digests of two different protein mixtures were utilized. The “test peptide mixture” contained human proteins: albumin, transferrin, fibrinogen. The “model peptide mixture” contained bovine proteins: albumin, transferrin, fibrinogen, catalase. Equimolar mixtures of the proteins were prepared, reduced with DTT, alkylated with iodoacetamide and digested with sequencing-grade modified trypsin (Promega, Madison, Wis.). Prior to nano-LC MS/MS analysis, mixtures were diluted with buffer A (0.1% formic acid in water) and spiked with the 6 standard peptides P1-P6^24 for test mixture and the set of 11 model peptides (described elsewhere^23) for a model mixture. All dilutions were performed to provide an injection of ˜100 fmole of each component into the nanoRP-HPLC MS system.
Chromatography. All chromatographic experiments were conducted at a controlled temperature of 22-23° C. For isocratic measurement of the slope values, a micro-Agilent 1100 Series system (Agilent Technologies, Wilmington, Del.), was used with a 1 mm×100 mm 5 μm Luna C18(2) (Phenomenex, Torrance, Calif.) column and a UV detector operated at 214 nm. Both eluents A (water) and B (acetonitrile) contained 0.1% formic acid as ion-pairing modifier. Stock solutions of the 11 standard peptides (˜1 mg/ml) were prepared by dissolving each peptide in 1 ml of 0.1% FA in water or a 20% acetonitrile solution. Ten microliters of sample was injected. Individual peptides were diluted to provide ˜0.5-1 μg injection of each component using a 10 μl loop. The dead volume of the column and connecting tubings was determined by injecting a non-retained compound (water) and measuring the elution time of the negative peak at a 150 μL/min flow rate. Retention factors for isocratic elution were calculated using the formula: k=(tR−t0)/t0c; where tR is the retention time, t0 is the system (column and tubings) dead time, and t0c is the column dead time. Additional details of measuring S-values via constructing log k vs. φ plots are provided elsewhere.^24 The nano-LC MS/MS experiments were conducted using splitless Tempo LC system (Eksigent, Dublin, Calif.) with 20 μL sample injection via a 300 μm×5 mm PepMap100 (Dionex, Sunnyvale, Calif.) trap-column and a 100 μm×200 mm analytical column packed with 5 μm Luna C18(2) (Phenomenex, Torrance, Calif.). Tryptic digests of the mixtures were spiked with calibrating peptides (see Table 1) as described above, injected on the trap-column using buffer A as a carrier and separated using 0.1875, 0.375 and 0.75 percent acetonitrile per minute linear gradients starting from 0.5% acetonitrile at 500 nL/min flow rate. The composition of both eluents A and B was identical to one described above for normal-flow system. Gradient programs consisted of a 0.5-40% linear increase of buffer B in 213.2, 106.6 and 53.3 minutes, respectively. After each run the gradient columns were washed with 80% B for 3 minutes and equilibrated with the starting A:B ratio for 18 minutes.
Mass spectrometry. A QStar Elite mass spectrometer (Applied Biosystems, Foster City, Calif.) equipped with a MicrolonSpray II source was used in standard MS/MS information dependent acquisition (IDA) mode for LC-ESI analyses. Protein identification was performed using Protein Pilot 3.0 (Applied Biosystems, Foster City, Calif.) with a restricted database containing target protein sequences and the sequences of standard peptides. Retention times of identified species (peak maxima) were assigned manually.
These two ways of measurement have been combined to provide a highly accurate and fast way of determining S for an extensive sets of peptides (see FIG. 3). First, precise isocratic measurement of S is performed in normal flow conditions with UV detection for a set of synthetic “S-calibrating” peptides. […]

Substance	Slope (experimental)
LRPVAAEIYGTK	34.815
APVDAFKECHLAQVPSHAVVAR	46.264
RWQWR	27.269
QNCDQFEK	36.657
LNELR	32.443
KVIEQVQR	43.582
ISQLTNMGPTK	33.29
TYDSYLGDDYVR	31.66
IIPLNR	28.596
IEILR	24.216
VIEQVQR	38.258
GLIDEVDQDFTSR	30.089
WYSMK	25.257
LASAADFR	29.663
KEEAPSLRPVPPPISGGGYR	42.646
GDSVSQGTGLAPGSPR	38.571
LLSLLHFR	28.039
WYSMKK	33.268
TFYLK	22.874
LLHAAHFR	39.794
NFSDVHPEYGSR	37.948

Substance	Slope (experimental)
TSDANINWNNLKDKK	39.525
QNQVQDNENWNEYSSHLEK	40.065
KDMDKVETFLR	34.768
ECCHGDLLECADDRADLAK	40.256
DNPQTHYYAVAVVKK	39.552
AIQISYNPDQPSKPNNIESATK	42.444
LLLGGDFR	22.643
NWIQYK	26.629
LCENIAGHLK	37.285
LAGGGSASSSAHAAAFR	44.118
LDGSLDFK	25.689
DGTRKPVTDAENCHLAR [tryptic peptide of the model peptide mixture, 5 positively charged groups]	50.359
LLSAADFR	25.969
DKVVQLEANCQEPCQDTVK	42.675
RLDGSLDFKK	35.968
YCGVPGEYWLGNDR	29.184
FCLFK [tryptic peptide detected in the model peptide mixture]	21.68
ETTVFENLPEK	29.323
LQDTLVR	29.045
LNSLTVGPR	30.791
VFEHIGK	34.229

Substance	Slope (experimental)
LGEYGFQNALIVR	29.764
QFVSSSTTVNR	37.462
ENFEVLCK	27.436
LLGGGSLSSSLDAAAFR	32.333
LLGGSLSSLDAAFR	30.604
LLSLAHFR	29.303
ILESGPFVSCVKK	34.299
YICDNQDTISSK	37.666
QAYPNLCQLCK	32.399
VWPHGDYPLIPVGK	34.183
LLGSLSLDAFR	28.402
NLSVEDAAR	32.289
LKPDPNTLCDEFK	36.757
KTYDSYLGDDYVR	35.968
KLGAPSITCVR	37.615
LFAYPDTHR	31.897
LAHEDPDYGLR	36.832
FKDLGEEHFK	38.336
TVMENFVAFVDK	28.849
AAANFFSASCVPCADQSSFPK	35.1
CCTESLVNR	33.998

Substance	Slope (experimental)
ANEGLTWNSLK	27.455
LLLLLDFR	22.983
LLIEMEDWK	26.865
ENVLR	31.531
LLEACTFHKP	36.237
KVPQVSTPTLVEVSR	37.64
LLHLLHFR	31.51
LLIEMEDWKGDK	30.791
MEDEAESLEDLGFK	29.603
NTPEKGYLAVAVVK	34.392
KNWIQYK	31.919
GGWTVIQNR	26.957
YAAELHLVHWNTK	36.188
RHPYFYAPELLYYANK	35.968
LLHLAHFR	33.837
LKPDPNTLCDEFKADEK	41.815
LCALCAGDDQGLDK	33.517
ETYGDMADCCEK	36.36

Same assay, conditions: experimental S, LC-MS runs of model peptide mixture, formic acid

Substance	Slope (experimental)
LLGGGGDFR	25.846
DDPHACYSTVFDK	32.575
HQLYIDETVK	34.369
VTGENDKYR [moderately sized, hydrophilic tryptic species of the model peptide mixture]	49.044
AWSVAR	26.993
DQTVIQNTDGNNNEAWAK	34.721
LAGGGSASSSADAAAFR	35.894
VHKECCHGDLLECADDR [fragment from bovine albumin]	42.014
DLEEGIQTLMGR	26.684
GRQNQVQDNENVVNEYSSHLEK	42.444
DSLFNYQK	24.58
NYELLCGDNTRK	31.767
CCAADDKEACFAVEGPK	38.207
DLGEEHFK	32.597
EDGGGWWVYNR	23.696
QGFGNIATNAEGK	31.595
CGLVPVLAENR	26.128
ECCDKPLLEK	35.555
AVLKDGPLTGTYR	35.435
TCVADESHAGCEK	47.601
VHKECCHGDLLECADDRADLAK	44.599
CGLVPVLAENRK	30.745
AVVQDPALKPLALVYGEATSR	35.627

Substance	Slope (experimental)
SEDGSDCGDADFDWHHTFPSR	37.158
DSALGFLR [tryptic peptide detected in the model peptide mixture]	21.784
DQLVDMK	25.899
VLNEEQR	40.229
APVDAFK	26.378
ESKPPDSSKDECMVK	48.845
KNYELLCGDNTR	33.631
KYCGVPGEYWLGNDR	33.065
DKPDNFQLFQSPHGK	32.597
DALLFPSFIHSQK	29.523
ARPATATVGQK	51.675
GACLLPK	25.811
ETGWPFCSDEDWNTK	29.105
ALLEMQQTK	26.288
NYELLCGDNTR	27.868
NCPDKFCLFK	28.518
SHCIAEVEK	41.223
EDGSDPPSGDFLTEGGGVR	30.812
GEGENQCACSSR [moderately sized, hydrophilic tryptic species of the model peptide mixture]	54.005
VDSALYLGSR	27.122
GDKELLIDNEK	32.311
HSTVFDNLPNPEDR	34.439

Same assay, conditions: model peptide mixture (tryptic digest of bovine proteins), 0.75 and 0.1875% acetonitrile per minute gradients, formic acid, S from Δ vs. S curve of S-calibrating peptides

Substance	experimental S-value
VTGENDKYR [moderately sized, hydrophilic tryptic species of the model peptide mixture]	49.0
VHKECCHGDLLECADDR [fragment from bovine albumin]	~42
DGTRKPVTDAENCHLAR [tryptic peptide of the model peptide mixture, 5 positively charged groups]	50.4
FCLFK [tryptic peptide detected in the model peptide mixture]	21.7
DSALGFLR [tryptic peptide detected in the model peptide mixture]	21.8
KPVTEAQSCHLAVAPNHAWSR (KPVTEAQSCHLAVAPNHAVVSR) [tryptic peptide of the model peptide mixture, 5 positively charged groups]	49.5
GEGENQCACSSR [moderately sized, hydrophilic tryptic species of the model peptide mixture]	54.1 and 51.7
